B1: chimeric α/γ/γ receptor chain (receptor, UniProt P01589 22-240, looked up)
chain: ELCDDDPPEIPHATFKAMAYKEGTMLNCECKRGFRRIKSGSLYMLCTGNSSHSSWDNQCQCTSSATRNTTKQVTPQPEEQKERKTTEMQSPMQPVDQASLPGHCREPPPWENEATERIYHFVVGQMVYYQCVQGYRALHRGPAESVCKMTHGKTRWTQPQLICTGEMETSQFPGEEKPQASPEGRPESETSCLVTTTDFQIQTEMAATMETSIFTTEYQVVISVGSMGLIISLLCVYFWLERTMPRIPTLKNLEDLVTEYHGNFSAWSGVSKGLAESLQPDYSERLCLVSEIPPKGGALGEGPGASPCNQHSPYWAPPCYTLKPET
B2: JAK-3 protein (enzyme)
chain: MAPPSEETPLIPQRSCSLLSTEAGALHVLLPARAPGPPQRLSFSFGDHLAEDLCVQAAKASGILPVYHSLFALATEDLSCWFPPSHIFSVEDASTQVLLYRIRFYFPNWFGLEKCHRFGLRKDLASAILDLPVLEHLFAQHRSDLVSGRLPVGLSLKEQGECLSLAVLDLARMAREQAQRPGELLKTVSYKACLPPSLRDLIQGLSFVTRRAIRRTVRRALPRVAACQADRHSLMAKYIMDLERLDPAGAAETFHVGLPGALGGHDGLGLLRVAGDGGIAWTQGEQEVLQPFCDFPEIVDISIKQAPRVGPAGEHRLVTVTRTDNQILEAEFPGLPEALSFVALVDGYFRLTTDSQHFFCKEVAPPRLLEEVAEQCHGPITLDFAINKLKTGGSRPGSYVLRRSPQDFDSFLLTVCVQNPLGPDYKGCLIRRSPTGTFLLVGLSRPHSSLRELLATCWDGGLHVDGVAVTLTSCCIPRPKEKSNLIVVQRGHSPPTSSLVQPQSQYQLSQMTFHKIPADSLEWHENLGHGSFTKIYRGCRHEVVDGEARKTEVLLKVMDAKHKNCMESFLEAASLMSQVSYRHLVLLHGVCMAGDSTMVQEFVHLGAIDMYLRKRGHLVPASWKLQVVKQLAYALNYLEDKGLPHGNVSARKVLLAREGADGSPPFIKLSDPGVSPAVLSLEMLTDRIPWVAPECLREAQTLSLEADKWGFGATVWEVFSGVTMPISALDPAKKLQFYEDRQQLPAPKWTELALLIQQCMAYEPVQRPSFRAVIRDLNSLISSDYELLSDPTPGALAPRDGLWNGAQLYACQDPTIFEERHLKYISQLGKGNFGSVELCRYDPLAHNTGALVAVKQLQHSGPDQQRDFQREIQILKALHSDFIVKYRGVSYGPGRPELRLVMEYLPSGCLRDFLQRHRARLDASRLLLYSSQICKGMEYLGSRRCVHRDLAARNILVESEAHVKIADFGLAKLLPLDKDYYVVREPGQSPIFWYAPESLSDNIFSRQSDVWSFGVVLYELFTYCDKSCSPSAEFLRMMGCERDVPALCRLLELLEEGQRLPAPPACPAEVHELMKLCWAPSPQDRPSFSALGPQLDMLWSGSRGCETHAFTAHPEGKHHSLSFS
notes: Intracellular kinase of 1124 residues; Tested as the endogenous protein in lysates of HUT-78, YT, NK and NK3.3 cells, or as recombinant protein in lysates of transfected COS-7 cells; also called L-JAK; human JAK-3

Experiments:
[1] = target: T1, JAK-1 (UniProt P23458 1-1154, limits assumed); assay: anti-Tac immunoprecipitation, JAK-1 Western blot, COS-7 cotransfectants
T1 construct: whole, on cells; Tested in cell lysates
T1 sequence (P23458 whole entry): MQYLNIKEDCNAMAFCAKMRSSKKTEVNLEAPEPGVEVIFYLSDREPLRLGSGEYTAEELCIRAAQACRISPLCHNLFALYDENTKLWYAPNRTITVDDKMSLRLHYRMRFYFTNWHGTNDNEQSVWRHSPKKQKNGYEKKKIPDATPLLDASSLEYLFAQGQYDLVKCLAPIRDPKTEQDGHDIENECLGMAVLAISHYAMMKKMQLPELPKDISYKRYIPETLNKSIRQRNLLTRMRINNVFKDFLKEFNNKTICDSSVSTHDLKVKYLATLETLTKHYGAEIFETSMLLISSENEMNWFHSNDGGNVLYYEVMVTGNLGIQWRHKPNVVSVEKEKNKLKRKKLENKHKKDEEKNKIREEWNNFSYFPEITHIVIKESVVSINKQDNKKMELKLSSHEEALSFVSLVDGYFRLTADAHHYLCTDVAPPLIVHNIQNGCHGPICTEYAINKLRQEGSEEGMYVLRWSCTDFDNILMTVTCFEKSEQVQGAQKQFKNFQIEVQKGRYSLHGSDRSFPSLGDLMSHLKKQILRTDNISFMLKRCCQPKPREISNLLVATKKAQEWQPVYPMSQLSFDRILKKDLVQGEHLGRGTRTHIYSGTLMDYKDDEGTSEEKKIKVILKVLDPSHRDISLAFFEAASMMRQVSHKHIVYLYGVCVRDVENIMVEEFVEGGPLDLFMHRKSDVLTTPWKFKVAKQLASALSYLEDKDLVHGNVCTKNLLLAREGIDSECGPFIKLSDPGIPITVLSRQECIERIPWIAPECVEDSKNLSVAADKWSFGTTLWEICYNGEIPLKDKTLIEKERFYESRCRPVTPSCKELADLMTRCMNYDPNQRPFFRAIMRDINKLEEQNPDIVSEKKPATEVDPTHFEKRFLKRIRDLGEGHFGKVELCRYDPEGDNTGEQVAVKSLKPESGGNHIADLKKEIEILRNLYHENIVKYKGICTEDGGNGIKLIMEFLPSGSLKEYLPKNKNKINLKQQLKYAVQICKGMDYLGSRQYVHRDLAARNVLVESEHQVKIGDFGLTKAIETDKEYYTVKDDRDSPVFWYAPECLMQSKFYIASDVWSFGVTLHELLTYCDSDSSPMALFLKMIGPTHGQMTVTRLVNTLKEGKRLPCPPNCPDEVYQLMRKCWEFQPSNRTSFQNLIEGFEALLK

[2] = target: T2, common γ chain of the IL-2 receptor, wild type (UniProt P31785 23-369, limits assumed); assay: co-immunoprecipitation from YT cell lysates with R878, JAK-3 Western blot
T2 construct: whole, on cells; Tested in cell lysates; also called wild type γc
T2 sequence (looked up): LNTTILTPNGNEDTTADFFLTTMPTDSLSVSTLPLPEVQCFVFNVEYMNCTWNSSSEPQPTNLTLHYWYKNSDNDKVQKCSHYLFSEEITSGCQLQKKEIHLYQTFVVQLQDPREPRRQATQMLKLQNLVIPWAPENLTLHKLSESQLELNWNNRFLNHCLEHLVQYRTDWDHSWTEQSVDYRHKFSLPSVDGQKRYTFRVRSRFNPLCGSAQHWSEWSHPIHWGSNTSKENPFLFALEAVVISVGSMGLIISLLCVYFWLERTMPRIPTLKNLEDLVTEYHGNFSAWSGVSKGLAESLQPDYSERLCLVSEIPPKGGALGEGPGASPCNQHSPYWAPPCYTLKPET

| binding result [1] | binding result [2] | Binder |
| --- | --- | --- |
| no binding | – | B1 |
| – | binds | B2 |
